In PMC7810697, “Sarcolipin alters SERCA1a interdomain communication by impairing binding of both calcium and ATP” (Scientific Reports, 2021):
Several values for one entry are separate records, joined by “and”; a condition that tells them apart may be missing. Identical values can stand only once. Ends that are not written are not given here. * marks the point of attachment. Palmitoyl = CCCCCCCCCCCCCCCC(=O)*

How the values were obtained:
[1] = molecular target: T1, recombinant SERCA1a (recS1a) (Oryctolagus cuniculus, UniProt P04191); assay: Calcium dependence of phosphoenzyme level; assay type: biochemical, rabbit (expressed in S. cerevisiae)
T1 construct: BAD (biotin acceptor domain) (C, cleaved yes); made in house; host or cells: Saccharomyces cerevisiae
T1 sequence (P04191 1-994 isoform P04191-2): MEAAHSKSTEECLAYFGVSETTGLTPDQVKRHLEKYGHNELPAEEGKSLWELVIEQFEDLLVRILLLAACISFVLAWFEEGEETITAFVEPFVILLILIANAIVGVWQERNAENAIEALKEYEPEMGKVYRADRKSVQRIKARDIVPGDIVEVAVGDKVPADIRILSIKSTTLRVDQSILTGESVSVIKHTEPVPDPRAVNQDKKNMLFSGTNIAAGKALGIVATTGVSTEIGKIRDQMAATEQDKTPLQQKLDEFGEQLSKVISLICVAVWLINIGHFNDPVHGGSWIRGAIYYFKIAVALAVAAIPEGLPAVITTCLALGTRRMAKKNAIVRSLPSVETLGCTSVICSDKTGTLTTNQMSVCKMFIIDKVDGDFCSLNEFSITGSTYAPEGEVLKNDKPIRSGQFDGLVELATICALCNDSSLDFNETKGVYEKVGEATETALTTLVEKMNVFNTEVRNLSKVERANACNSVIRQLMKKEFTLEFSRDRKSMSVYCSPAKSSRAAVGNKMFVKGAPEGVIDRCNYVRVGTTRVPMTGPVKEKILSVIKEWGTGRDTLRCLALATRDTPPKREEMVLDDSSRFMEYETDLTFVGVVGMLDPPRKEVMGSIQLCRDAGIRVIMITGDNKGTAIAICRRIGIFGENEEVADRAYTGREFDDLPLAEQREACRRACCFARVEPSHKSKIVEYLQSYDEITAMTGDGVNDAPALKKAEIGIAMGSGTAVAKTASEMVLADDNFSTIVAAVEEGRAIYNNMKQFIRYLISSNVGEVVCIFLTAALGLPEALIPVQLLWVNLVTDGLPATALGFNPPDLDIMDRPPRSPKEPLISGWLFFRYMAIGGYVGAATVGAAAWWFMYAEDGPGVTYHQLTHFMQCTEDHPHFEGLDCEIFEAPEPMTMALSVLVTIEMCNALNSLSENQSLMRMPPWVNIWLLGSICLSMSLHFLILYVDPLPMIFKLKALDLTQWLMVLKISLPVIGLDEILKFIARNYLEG
Experimental: (§1) Transient formation of the phosphoenzyme intermediate was measured after incubation with [γ^32P]ATP followed by acid quenching, and filtration. For most experiments, 50 µL of enzyme at 10 µg/mL in a buffer containing 50 mM Tes-Tris pH7.5, 1 mM KCl, 5 mM MgCl2, 20% glycerol (w/w) and 0.5 mg/mL DDM, supplemented or not with SLN, was stored on ice. Concentrations of EGTA and calcium are specified in figure legends in order to reach the appropriate [Ca^2+]free and therefore the desired starting state for the ATPase. For kinetics of phosphorylation, we initiate reaction by addition of 2 µM [γ^32P]ATP (5 mCi/µmole), and calcium at 100 µM when specified. Reaction was quenched by addition of 2 mL of cold quenching medium (500 mM TCA + 30 mM H3P0_4) under vigorous mixing, and immediately stored on ice for 20–30 min to improve precipitation, a period of time critical for retention of the precipitate on the filter in presence of detergent. This was followed by filtration on GS filters (Millipore, Saint Quentin-Fallavier, France) and careful rinsing of the filters with diluted quenching medium (50 mM TCA + 3 mM H3P0_4). The amount of radioactivity bound to the filter was estimated by liquid scintillation counting (Perkin Elmer TriCarb Counter). When starting from a calcium-deprived state (Fig. 4C,D), EGTA was added only one minute before starting phosphorylation to limit irreversible inactivation of the solubilized ATPase, although the presence of glycerol helps in protecting the enzyme from irreversible inactivation. For dephosphorylation kinetics, 1 mM “cold” Mg.ATP was added after a 30 s period of phosphorylation. For Ca^2+-dependency, we adjust the concentration of free calcium according to the Ca.EGTA constant as mentioned above, before triggering phosphorylation. […] Phosphorylations were done at 0 °C especially for inhibition by vanadate to prevent dissociation of vanadate and limit irreversible inactivation in absence of calcium.

[2] = molecular target: T1, recombinant SERCA1a (recS1a); assay: Effect of SLN:SERCA1a stoichiometry on phosphorylated intermediate, recS1a; assay type: biochemical, rabbit (expressed in S. cerevisiae); conditions: for EPmax (stoichiometry series), recS1a / maximum decrease of the EP level, recS1a (discussion): Fig. 4G; for SLN:SERCA1a ratio for half-inhibition, recS1a (Fig. 4H): phosphoenzyme after 20 s, dose-response with variable slope; for SLN:SERCA1a ratio for half-inhibition, recS1a (Fig. 4H) / amplitude of the inhibition of phosphoenzyme level, recS1a: mean of three independent experiments; for amplitude of the inhibition of phosphoenzyme level, recS1a: recS1a without SLN = 100%
Experimental: as §1

[3] = tested on: recombinant purified SERCA1a (recS1a); assay: Limited proteolysis with proteinase K (SDS-PAGE); assay type: biochemical, rabbit (expressed in S. cerevisiae); conditions: Ca2.E1 (1 mM calcium) and E2.Tg (EGTA + thapsigargin); recS1a:pSLN 1:10 mole:mole; 0.3 mg/mL proteinase K, 5-30 min, 20 °C
Experimental: Yeast-expressed and purified SERCA1a (recS1a) was supplemented with SLN at a mole:mole ratio of 1:10 recS1a:SLN. In absence of SLN, recS1a was supplemented with 0.07 mg/mL C12E8, an amount that corresponds to the detergent brought with chemically synthesized SLN. After 30 min at 20 °C, samples were supplemented with either 1.1 mM EGTA (Ca^2+free ~ 1 mM), or 50 mM EGTA (Ca^2+free ~ 150 nM) and 0.01 mg/mL Tg. After an additional incubation for 10 min at 20 °C, proteolysis was achieved by addition of 0.3 mg/mL proteinase K. Proteolysis was stopped by addition of 1 mM PMSF and incubation on ice for 10 min. After proteolysis arrest, samples were diluted twice in a 4 M-urea containing denaturation buffer, boiled for 60 s, and about 0.75 µg protein were loaded on a 9% SDS-PAGE prepared in the presence of 1 mM Ca^2+[32]. After electrophoresis, gels were stained with Coomassie blue.

[4] = molecular target: T1, recombinant SERCA1a (recS1a); assay: Vanadate inhibition of phosphoenzyme formation, recS1a; assay type: biochemical, rabbit (expressed in S. cerevisiae); conditions: for K1/2 (K0.5) for vanadate inhibition, recS1a + pSLN: DDM-solubilized, preincubation with orthovanadate without calcium, phosphorylation 30 s at 0 °C, three independent experiments, p < 0.0001 vs recS1a alone
Experimental: as §1

[5] = molecular target: T1, recombinant SERCA1a (recS1a); assay: Calcium binding at equilibrium by tryptophan fluorescence; design: species or system rabbit (expressed in S. cerevisiae); conditions: average of three independent experiments; for Ca1/2 (tryptophan fluorescence), recS1a + pSLN: at equilibrium, pH 7, 20 °C, DDM, 20% glycerol, p=0.200 vs recS1a alone
Experimental: Intrinsic fluorescence of SERCA1a was measured with a SPEX Fluorolog spectrofluorometer (Horiba/Jobin–Yvon, Longjumeau, France) as described before. Briefly, signals were monitored with excitation and emission wavelength set at 295 and 320 nm, with bandwidths of 2 and 10 nm, respectively. Changes in tryptophan fluorescence were recorded at 20 °C after dilution of protein samples to a final concentration of about 6–7.5 µg/mL into a medium containing 50 mM MOPS-Tris pH 7, 100 mM KCl, 5 mM MgCl2, 20% glycerol (v/v) and 10 mg/mL DDM. In presence of SLN, recS1a and SLN were first mixed together and incubate for 1 h on ice before measurement. In absence of SLN, recS1a is supplemented with 0.07 mg/mL C12E8 to compensate the detergent present with SLN. The Maxchelator program was used for estimating [Ca^2+]free[59] (program available at https://somapp.ucdmc.ucdavis.edu/pharmacology/bers/maxchelator/downloads.htm). The dissociation constant of the Ca.EGTA complex was taken to be 0.4 µM at pH7 and was assumed to be the same in the presence of glycerol.

SERCA1a [6] = conditions: cross-linking experiments; cited from earlier work
Text: An analysis of all the published data on biochemical characterization of PLB or SLN highlights heterogeneity in the results.

SERCA1a [7] = conditions: cited from earlier work
Text: Besides its various roles in protein signalling and addressing, palmitoylation can also regulate oligomerisation processes of membrane proteins. Recent work has shown that other P-type ATPases regulatory subunits like phospholamban (PLB) and phospholemman (PLM) are palmitoylated[16],[17]. Acylation of PLB and PLM is functionally relevant by having an impact on the oligomerisation of the peptides, their association with their dedicated pumps (Ca^2+-ATPase or Na+, K+-ATPase, respectively) and on their lifetime.

SERCA1a [8] = conditions: cited from earlier work; remark: listed apart in the source
Text: Effect on the turnover is less clear as it seems to highly depend on the system used for functional characterization. […] This post-translational modification is also present in pig SLN and presumably in a few other mammals and birds, as judged from the amino-acid sequences. Among the other hundred seq ...

## pSLN: chemically synthesized S-palmitoylated rabbit sarcolipin, 31-residue single-spanning membrane peptide, palmitoylated on Cys9 (MERSTRELC(Palmitoyl)LNFTVVLITVILIWLLVRSYQY; UniProt P42532 1-31, looked up)
[1]; five independent experiments
  nH for calcium (phosphoenzyme level), recS1a + pSLN: 0.74 ± 0.03
[1]; phosphorylation 15 s, varying calcium, five independent experiments, 36 data points per fit, p = 0.29
  Ca1/2 (phosphoenzyme level), recS1a + pSLN: 0.58 ± 0.05 µM and 0.58 µM
[1]; recS1a + pSLN, Fig. 4E, recS1a alone 3.13 ± 0.11
  EPmax (calcium dependence): 3.19 ± 0.11 nmoles EP/mg ATPase
[2]
  EPmax (stoichiometry series), recS1a: 2.37 ± 0.05 nmoles EP/mg ATPase
  maximum decrease of the EP level, recS1a (discussion): about 30%
  SLN:SERCA1a ratio for half-inhibition, recS1a (Fig. 4H): 5.1 ± 0.3 mol SLN added per mole of SERCA1a
  amplitude of the inhibition of phosphoenzyme level, recS1a: 31.2 ± 0.8%
[3]
  effect on proteinase K proteolysis: drastically slowed
[4]
  K1/2 (K0.5) for vanadate inhibition, recS1a + pSLN: 0.22 ± 0.01 µM
[4]; listed as Palm-SLN
  K1/2 (K0.5) for vanadate inhibition, recS1a + pSLN: 0.22+/-0.01 µM
[4]; recS1a + pSLN, recS1a alone 2.01 ± 0.05
  EPmax (vanadate series): 2.07 ± 0.21 nmoles/mg of ATPase
[5]
  Ca1/2 (tryptophan fluorescence), recS1a + pSLN: 4.5 µM
  nH for calcium (tryptophan fluorescence), recS1a + pSLN: 1.96+/-0.20
[5]; listed as Palm-SLN
  Ca1/2 (tryptophan fluorescence), recS1a + pSLN: 4.48 +/- 0.52 µM

## SLN: chemically synthesized non-palmitoylated rabbit sarcolipin; in cited literature results sarcolipin in general (MERSTRELCLNFTVVLITVILIWLLVRSYQY; UniProt P42532 1-31, looked up)
SERCA1a [6]
  cross-linking interaction with SERCA1a: interaction of SLN with SERCA1a at all the major steps of the catalytic cycle
[2]
  EPmax (stoichiometry series), recS1a: 2.38 ± 0.05 nmoles EP/mg ATPase
  maximum decrease of the EP level, recS1a (discussion): about 30%
  SLN:SERCA1a ratio for half-inhibition, recS1a (Fig. 4H): 4.7 ± 0.2 mol SLN added per mole of SERCA1a
  amplitude of the inhibition of phosphoenzyme level, recS1a: 28.6 ± 0.5%
SERCA1a [7]
  effect of phosphorylation of SLN:Thr5 on SERCA1a inhibition: loss of inhibition of SERCA1a
SERCA1a [8]; 0.35 µM in absence of SLN
  apparent affinity for calcium in presence of SLN: 0.51 µM
SERCA1a [8]; % of Vmax measured in absence of SLN, ref 13 and Supplementary Table 1
  Vmax in presence of SLN, increase reported by some authors: up to 140%
